B1: PGT121-K136 fusion protein (Fab)
VH: QMQLQESGPGLVKPSETLSLTCSVSGASISDSYWSWIRRSPGKGLEWIGYVHKSGDTNYSPSLKSRVNLSLDTSKNQVSLSLVAATAADSGKYYCARTLHGRRIYGSENLYFQGTCPDNYREVDGCDPYDCCLTTWCTNSYCTRYIENLYFQGSEWFTYFYMDVWGNGTQVTVSS
VL: QSVLTQPPDISVAPGETARISCGEKSLGSRAVQWYQHRAGQAPSLIIYNNQDRPSGIPERFSGSPDSPFGTTATLTITSVEAGDEADYYCHIWDSRVPTKWVFGGGTTLTVL
notes: light chain of the human Fab PGT121, as the light chain of m4; Purified on a nickel column, so a His tag is surmised; also called PGT121 Fab-knob domain fusion protein (K136); source: Expi293F, transient co-transfection of heavy and light chain, purified from supernatant (Hi-Trap Nickel excel)
B2: PGT121-K149 fusion protein (Fab)
VH: QMQLQESGPGLVKPSETLSLTCSVSGASISDSYWSWIRRSPGKGLEWIGYVHKSGDTNYSPSLKSRVNLSLDTSKNQVSLSLVAATAADSGKYYCARTLHGRRIYGSENLYFQGSCPDGFSYRSWDDFCCPMVGRCLAPRNGSENLYFQGSEWFTYFYMDVWGNGTQVTVSS
VL: B1 VL
notes: light chain of the human Fab PGT121, as the light chain of m4; Purified on a nickel column, so a His tag is surmised; also called K149-PGT121 construct; source: Expi293F, transient co-transfection of heavy and light chain, purified from supernatant (Hi-Trap Nickel excel)

Columns and labels:
Details in all cases: both partners purified
[1] = target: T1, human complement component C3 (Homo sapiens, UniProt P01024); test: SPR; Biacore single-cycle kinetics counter screen; C3 amine-coupled to CM5 (minimal immobilisation, 40-55 RU); PGT121 knob fusion proteins as analytes
T1 construct: Complement component C3, human, beta chain of the processed serum protein; Complement component C3, human, alpha chain of the processed serum protein; source: bought: CompTech
T1 sequence (P01024 whole entry, looked up, the tested form may be a part): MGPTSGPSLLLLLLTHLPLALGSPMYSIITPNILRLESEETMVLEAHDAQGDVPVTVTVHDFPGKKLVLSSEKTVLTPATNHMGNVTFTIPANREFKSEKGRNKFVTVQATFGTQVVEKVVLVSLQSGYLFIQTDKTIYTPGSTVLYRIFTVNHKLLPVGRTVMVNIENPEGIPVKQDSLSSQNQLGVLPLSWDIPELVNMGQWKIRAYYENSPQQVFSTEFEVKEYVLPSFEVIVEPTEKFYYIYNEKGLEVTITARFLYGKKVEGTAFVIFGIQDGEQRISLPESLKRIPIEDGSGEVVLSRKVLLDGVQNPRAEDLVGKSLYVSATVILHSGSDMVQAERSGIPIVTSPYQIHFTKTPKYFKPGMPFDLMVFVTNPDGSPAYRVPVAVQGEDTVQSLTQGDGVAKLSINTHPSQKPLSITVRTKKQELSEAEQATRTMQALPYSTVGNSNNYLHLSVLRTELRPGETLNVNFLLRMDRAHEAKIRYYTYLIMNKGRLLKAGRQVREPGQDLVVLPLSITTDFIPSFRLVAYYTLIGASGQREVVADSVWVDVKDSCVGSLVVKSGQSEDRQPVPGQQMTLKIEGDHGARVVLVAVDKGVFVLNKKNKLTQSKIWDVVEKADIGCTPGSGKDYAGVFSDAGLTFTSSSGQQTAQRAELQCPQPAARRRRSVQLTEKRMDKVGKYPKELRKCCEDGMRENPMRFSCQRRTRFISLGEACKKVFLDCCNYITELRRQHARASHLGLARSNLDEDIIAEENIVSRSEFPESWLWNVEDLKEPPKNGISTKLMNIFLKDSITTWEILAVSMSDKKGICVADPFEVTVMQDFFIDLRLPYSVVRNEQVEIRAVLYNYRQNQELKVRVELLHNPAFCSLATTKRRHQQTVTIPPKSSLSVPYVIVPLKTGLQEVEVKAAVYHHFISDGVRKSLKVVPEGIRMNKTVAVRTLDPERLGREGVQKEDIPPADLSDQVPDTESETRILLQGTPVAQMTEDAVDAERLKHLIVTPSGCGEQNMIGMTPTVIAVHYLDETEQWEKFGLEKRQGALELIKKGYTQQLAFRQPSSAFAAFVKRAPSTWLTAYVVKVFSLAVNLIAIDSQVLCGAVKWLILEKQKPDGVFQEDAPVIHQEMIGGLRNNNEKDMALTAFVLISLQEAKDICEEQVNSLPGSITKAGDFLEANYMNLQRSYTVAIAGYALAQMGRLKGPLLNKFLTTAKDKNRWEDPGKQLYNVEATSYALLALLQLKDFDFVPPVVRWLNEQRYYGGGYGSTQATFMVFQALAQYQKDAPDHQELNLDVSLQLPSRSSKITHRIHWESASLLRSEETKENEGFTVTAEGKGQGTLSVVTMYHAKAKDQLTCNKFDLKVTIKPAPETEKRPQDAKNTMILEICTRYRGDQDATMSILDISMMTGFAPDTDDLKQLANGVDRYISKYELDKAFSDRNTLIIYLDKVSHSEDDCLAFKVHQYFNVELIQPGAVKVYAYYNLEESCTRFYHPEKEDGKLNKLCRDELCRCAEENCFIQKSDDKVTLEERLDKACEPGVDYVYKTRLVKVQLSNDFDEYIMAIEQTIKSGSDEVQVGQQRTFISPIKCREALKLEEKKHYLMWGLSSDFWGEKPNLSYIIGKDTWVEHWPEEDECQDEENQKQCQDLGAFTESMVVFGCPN

[2] = target: T2, Complement component C5 (Homo sapiens, UniProt P01031); test: SPR; Biacore 8K single-cycle kinetics; C5 amine-coupled to CM5 (minimal immobilisation, 100-160 RU; 50-85 RU for PGT121-K149); PGT121 knob fusion proteins as analytes, 1 μM to 1.37 nM in HBS-EP; 40 μL/min (100 μL/min for K149); dissociation 10,000 s; 1:1 model; mean of 3 experiments
T2 construct: Complement component C5, human, beta chain of the processed serum protein; Complement component C5, human, alpha chain of the processed serum protein; In the FRET assays C5 carried an amine-reactive terbium chelate (dye to protein 4:1); in SPR it was amine-coupled to a CM5 chip; The C5 used for immunisation was bought from CompTech; also called human C5; C5-Tb
T2 sequence (P01031 whole entry, looked up, the tested form may be a part): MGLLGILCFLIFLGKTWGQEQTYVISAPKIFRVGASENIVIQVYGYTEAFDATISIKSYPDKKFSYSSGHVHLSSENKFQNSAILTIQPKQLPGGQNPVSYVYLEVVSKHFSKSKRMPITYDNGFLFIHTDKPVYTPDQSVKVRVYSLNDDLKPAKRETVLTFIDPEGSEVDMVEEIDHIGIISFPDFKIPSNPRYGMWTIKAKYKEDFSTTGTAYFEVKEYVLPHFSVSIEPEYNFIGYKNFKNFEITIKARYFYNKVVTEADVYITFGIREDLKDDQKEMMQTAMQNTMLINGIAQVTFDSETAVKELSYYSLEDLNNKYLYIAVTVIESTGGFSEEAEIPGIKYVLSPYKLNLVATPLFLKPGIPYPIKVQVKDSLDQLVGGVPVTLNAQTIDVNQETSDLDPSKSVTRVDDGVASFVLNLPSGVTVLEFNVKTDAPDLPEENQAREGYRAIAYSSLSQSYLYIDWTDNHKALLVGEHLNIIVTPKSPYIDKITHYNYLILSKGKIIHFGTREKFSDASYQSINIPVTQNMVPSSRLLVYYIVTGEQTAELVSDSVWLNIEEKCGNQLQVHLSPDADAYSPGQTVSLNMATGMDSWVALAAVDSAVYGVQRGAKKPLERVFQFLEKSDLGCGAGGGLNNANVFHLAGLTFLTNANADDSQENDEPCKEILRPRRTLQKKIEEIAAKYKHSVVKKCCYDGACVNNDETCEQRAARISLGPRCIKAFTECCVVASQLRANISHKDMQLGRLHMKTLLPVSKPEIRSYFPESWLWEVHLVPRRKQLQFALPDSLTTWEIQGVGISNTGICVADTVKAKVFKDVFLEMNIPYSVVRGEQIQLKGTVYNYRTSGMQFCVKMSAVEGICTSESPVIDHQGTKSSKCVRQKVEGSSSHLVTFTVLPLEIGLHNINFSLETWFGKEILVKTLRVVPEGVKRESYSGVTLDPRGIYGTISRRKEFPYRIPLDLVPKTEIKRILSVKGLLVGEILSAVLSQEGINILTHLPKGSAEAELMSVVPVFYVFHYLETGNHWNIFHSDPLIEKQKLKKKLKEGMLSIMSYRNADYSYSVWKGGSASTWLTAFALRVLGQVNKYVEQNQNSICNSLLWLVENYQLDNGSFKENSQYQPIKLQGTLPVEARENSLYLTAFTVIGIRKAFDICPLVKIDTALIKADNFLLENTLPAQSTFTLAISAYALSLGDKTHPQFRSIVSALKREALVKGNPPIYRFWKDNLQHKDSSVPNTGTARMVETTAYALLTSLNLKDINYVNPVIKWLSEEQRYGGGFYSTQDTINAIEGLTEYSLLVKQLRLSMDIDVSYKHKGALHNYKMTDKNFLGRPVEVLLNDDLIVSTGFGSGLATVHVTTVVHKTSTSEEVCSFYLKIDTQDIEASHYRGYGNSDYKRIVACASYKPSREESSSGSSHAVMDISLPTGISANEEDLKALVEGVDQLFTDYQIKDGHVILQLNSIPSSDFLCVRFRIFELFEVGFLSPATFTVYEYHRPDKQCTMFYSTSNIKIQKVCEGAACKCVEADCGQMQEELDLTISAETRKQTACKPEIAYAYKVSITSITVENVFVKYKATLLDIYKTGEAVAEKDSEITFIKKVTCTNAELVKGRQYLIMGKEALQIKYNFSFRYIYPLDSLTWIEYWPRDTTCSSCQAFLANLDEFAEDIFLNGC

[3] = target: T2, Complement component C5; test: FRET or BRET; steady state FRET; 1 nM terbium-labelled C5; titration of AlexaFluor 647-labelled PGT121 knob fusion protein in HBS-EP, with and without 1 μM unlabelled C5; 24 hours; apparent KD (KD app), geomean of 3 experiments

Row | Binder | binding result [1] | koff [2] | Kd [3]
1 | B1 | no binding (tested: 1 μM) | < 1e-05 s⁻¹ | 40 nM
2 | B2 | no binding (tested: 1 μM) |  | 66 nM
